Source: article PMC4840321

Tests used:
[1] = western blot, SGTA+Vpu-induced rise of 23-kDa species; details: glycan lost; control: wild type
[2] = cytosol/membrane fractionation ± SGTA and Vpu, anti-HA blot; details: glycan lost; control: wild type 23-kDa species
[3] = western blot, 23-kDa tetherin level ± SGTA and Vpu; details: glycan changed form; control: untreated

B1: tetherin/BST-2/CD317/HM1.24: N65A (protein)
parent chain: MASTSYDYCRVPMEDGDKRCKLLLGIGILVLLIIVILGVPLIIFTIKANSEACRDGLRAVMECRNVTHLLQQELTEAQKGFQDVEAQAATCNHTVMALMASLDAEKAQGQKKVEELEGEITTLNHKLQDASAEVERLRRENQVLSVRIADKKYYPSSQDSSSAAAPQLLIVLLGLSALLQ
For B1, the expression_or_secretion [1] was “no change”.

B2: tetherin/BST-2/CD317/HM1.24: NN-AA (protein)
parent chain: B1 parent chain
In the case of B2, the localisation_or_trafficking [2] is reported as “no change” and the expression_or_secretion [1] is reported as “abolishes”.

B3: tetherin/BST-2/CD317/HM1.24: kifunensine (protein)
parent chain: B1 parent chain
With B3 the expression_or_secretion [3] was “no change”.

B4: tetherin/BST-2/CD317/HM1.24: N92A (protein)
parent chain: B1 parent chain
In the case of B4, the expression_or_secretion [1] is reported as “no change”.
